Test results published in publication PMC3282170 (Febs Letters, 2012).
One block for each molecule: values may come before it.

Experiments:
[1] = biological target: Human γD-crystallin I4F/V76D, bimane-labeled at cysteine 111 (human) (UniProt P07320); assay: fluorescence polarisation
[2] = biological target: T1, triply phosphorylated analog (S19D/S45D/S59D) of αB-crystallin (UniProt P02511 1-175, S19D | S45D | S59D); assay: fluorescence polarisation
T1 sequence (looked up): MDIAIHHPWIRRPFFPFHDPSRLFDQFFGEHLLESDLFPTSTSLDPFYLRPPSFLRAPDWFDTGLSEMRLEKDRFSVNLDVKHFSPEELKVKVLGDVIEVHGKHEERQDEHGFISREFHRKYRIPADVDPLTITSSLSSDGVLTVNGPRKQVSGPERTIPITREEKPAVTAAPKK

Kd [1]: > 300 µM
Molecule: αB-crystallin (from UniProt P02511 1-175) (natural protein)

Kd [2]: 27 ± 6 µM
B1: Human γD-crystallin I4F/V76D, bimane-labeled at cysteine 111 (natural protein)
chain: GKFTLYEDRGFQGRHYECSSDHPNLQPYLSRCNSARVDSGCWMLYEQPNYSGLQYFLRRGDYADHQQWMGLSDSDRSCRLIPHSGSHRIRLYEREDYRGQMIEFTEDCSCLQDRFRFNEIHSLNVLEGSWVLYELSNYRGRQYLLMPGDYRRYQDWGATNARVGSLRRVIDFS
modifications: bimane label at cysteine C111
